Assay results taken from patent CN101007849A.

How the values were obtained:
[1] = molecular target: 人TPO受体(MPL)，表达于Ba/F3细胞 (human) (UniProt P40238); test: cell-based or functional assay
[2] = molecular target: 人TPO受体(MPL)，表达于Ba/F3细胞 (human) (UniProt P40238); test: cell-based or functional assay; remark: listed apart in the source

## 人TPO(R&D Systems) (from UniProt P40225 22-353) (ligand)
[1]
  ED50，BaF/mpl细胞增殖(WST-8): 0.027 nM

B1: 抗体12B5(IgG) (antibody, from another filing)
scFv: QVQLVQSGGGLVRPGGSLSLSCAVSGITLRTYGMHWVRQAPGKGLEWVAGISFDGRSEYYADSVQGRFTISRDSSKNTLYLQMNSLRAEDTAVYYCARGAHYGFDIWGQGTMVTVSSGGGGTGGGGSGGGGSDIQMTQSPSTLSASIGDRVTITCRASEGIYHWLAWYQQKPGKAPKLLIYKASSLASGAPSRFSGSGSGTDFTLTISSLQPDDFATYYCQQYSNYPLTFGGGTKLEIK
[2]
  ED50，TPO样激动剂活性(BaF/mpl细胞增殖，WST-8): 29 nM
